Data published in patent publication US20170306033A1 (Amgen, published 2017).

T1: human PAC1 receptor (human, UniProt P41586 21-468)
T1 sequence: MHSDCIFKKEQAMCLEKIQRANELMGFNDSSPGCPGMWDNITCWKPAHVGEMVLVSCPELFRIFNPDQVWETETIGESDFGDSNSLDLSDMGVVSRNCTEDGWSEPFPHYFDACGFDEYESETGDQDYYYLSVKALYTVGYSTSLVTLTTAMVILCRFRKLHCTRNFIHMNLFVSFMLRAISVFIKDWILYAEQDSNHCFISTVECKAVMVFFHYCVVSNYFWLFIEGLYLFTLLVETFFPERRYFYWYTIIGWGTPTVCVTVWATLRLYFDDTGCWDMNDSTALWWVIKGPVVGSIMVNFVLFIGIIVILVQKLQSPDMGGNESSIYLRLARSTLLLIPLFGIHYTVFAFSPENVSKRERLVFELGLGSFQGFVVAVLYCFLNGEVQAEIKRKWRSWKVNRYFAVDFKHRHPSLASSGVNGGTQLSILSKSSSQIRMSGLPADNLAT


Experiments:
human CGRP receptor = human CGRP receptor (human, UniProt Q16602 23-461; O60894 27-148); assay: cell-based or functional assay
human PAC1 receptor = biological target: T1, human PAC1 receptor; assay: cell-based or functional assay

Chain of human CGRP receptor (Q16602 23-461 limits assumed, chain 1 of 2): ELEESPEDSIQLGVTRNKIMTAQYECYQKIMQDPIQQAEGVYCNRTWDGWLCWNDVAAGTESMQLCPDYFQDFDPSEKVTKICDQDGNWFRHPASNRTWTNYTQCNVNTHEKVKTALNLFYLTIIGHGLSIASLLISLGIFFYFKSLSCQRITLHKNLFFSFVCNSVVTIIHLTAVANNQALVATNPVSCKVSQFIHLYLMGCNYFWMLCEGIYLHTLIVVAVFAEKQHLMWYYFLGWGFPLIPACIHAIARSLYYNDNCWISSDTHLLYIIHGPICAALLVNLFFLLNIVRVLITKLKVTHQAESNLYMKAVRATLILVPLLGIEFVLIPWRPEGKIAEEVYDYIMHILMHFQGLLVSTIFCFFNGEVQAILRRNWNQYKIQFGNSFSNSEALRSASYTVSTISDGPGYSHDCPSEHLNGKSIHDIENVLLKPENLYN
Chain of human CGRP receptor (O60894 27-148 limits assumed, chain 2 of 2): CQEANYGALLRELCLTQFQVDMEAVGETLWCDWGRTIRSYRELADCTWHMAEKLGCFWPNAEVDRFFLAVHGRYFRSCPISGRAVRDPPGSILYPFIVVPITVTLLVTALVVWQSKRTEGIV

| Binder | % inhibition of human CGRPR (human CGRP receptor) [%] | % inhibition of human PAC1 (human PAC1 receptor) [%] |
| --- | --- | --- |
| iPS:328031 (bispecific antibody, human IgG1, kappa, N297G) light 1: DIQMTQSPSSLSASVGDRITITCRASQSISRYLNWYQQKPGKAPKLLIYAASSLQSGIPSRFSGSGSGTDFTLTINSLQPEDFATYFCQQSYSPPFTFGQGTKVDIKRTVAAPSVFIFPPSDEQLKSGTASVVCLLNNFYPREAKVQWKVDNALQSGNSQESVTEQDSKDSTYSLESTLTLSKADYEKHKVYACEVTHQGLSSPVTKSFNRGEC heavy 1: not shown light 2: EIVLTQSPGTLSLSPGERATLSCRASQSVSSGYLTWYQQKPGQAPRLLIYGASSRATGIPDRFSGSGSGTDFTLTISRLEPEDFAVYYCQQYGNSLSRFGQGTKLEIKRTVAAPSVFIFPPSDEQLKSGTASVVCLLNNFYPREAKVQWKVDNALQSGNSQESVTEQDSKDSTYSLKSTLTLSKADYEKHKVYACEVTHQGLSSPVTKSFNRGEC heavy 2: not shown | 75 | 27 |
| iPS:327889 (bispecific antibody, human IgG1, kappa, lambda, N297G) light 1: not shown heavy 1: not shown light 2: QSVLTQPPSVSAAPGQKVTISCSGSSSNIGNNYVSWYQQLPGTAPKLLIYDNNKRPSGIPDRFSGSKSGTSATLAITGLQTGDEADYYCGTWDSRLSAVVFGGGTKLTVLGQPKANPTVTLFPPSSEELQANKATLVCLISDFYPGAVTVAWKADGSPVKAGVETTKPSKQSNNKYAAKSYLSLTPEQWKSHRSYSCQVTHEGSTVEKTVAPTECS heavy 2: QVQLVESGGGVVQPGRSLRLSCAASGFTFSSFGMHWVRQAPGKGLEWVAVISFDGSIKYSVDSVKGRFTISRDNSKNTLFLQMNSLRAEDTAVYYCARDRLNYYDSSGYYHYKYYGMAVWGQGTTVTVSSASTKGPSVFPLAPSSKSTSGGTAALGCLVKDYFPEPVTVSWNSGALTSGVHTFPAVLQSSGLYSLESVVTVPSSSLGTQTYICNVNHKPSNTKVDKKVEPKSCDKTHTCPPCPAPELLGGPSVFLFPPKPKDTLMISRTPEVTCVVVDVSHEDPEVKFNWYVDGVEVHNAKTKPCEEQYGSTYRCVSVLTVLHQDWLNGKEYKCKVSNKALPAPIEKTISKAKGQPREPQVYTLPPSRKEMTKNQVSLTCLVKGFYPSDIAVEWESNGQPENNYKTTPPVLKSDGSFFLYSKLTVDKSRWQQGNVFSCSVMHEALHNHYTQKSLSLSPGK | 83 | 9 |

Second part, the binder after the results:

| % inhibition of human CGRPR (human CGRP receptor) [%] | % inhibition of human PAC1 (human PAC1 receptor) [%] | Binder |
| --- | --- | --- |
| 82 | 20 | iPS:328033 (bispecific antibody, human IgG1, kappa, N297G) light 1: not shown heavy 1: not shown light 2: EIVLTQSPGTLSLSPGERATLSCRASQSVSSGYLTWYQQKPGQAPRLLIYGASSRATGIPDRFSGSGSGTDFTLTISRLEPEDFAVYYCQQYGNSLSRFGQGTKLEIKRTVAAPSVFIFPPSDEQLKSGTASVVCLLNNFYPREAKVQWKVDNALQSGNSQESVTEQDSKDSTYSLKSTLTLSKADYEKHKVYACEVTHQGLSSPVTKSFNRGEC heavy 2: not shown |
| 66 | 23 | iPS:326651 (bispecific antibody, human IgG2, kappa, lambda) light 1: not shown heavy 1: QVQLQESGPGLVKPSQTLSLTCTVSGGSISSGGYYWSWIRQHPGKGLEWIGYIYYSGNTYYNPSLKSRVTISGDTSKNQFSLKLRSVTAADTAVYYCTRGGAARGMDVWGQGTTVTVSSASTKGPSVFPLAPCSRSTSESTAALGCLVKDYFPEPVTVSWNSGALTSGVHTFPAVLQSSGLYSLKSVVTVPSSNFGTQTYTCNVDHKPSNTKVDKTVERKCCVECPPCPAPPVAGPSVFLFPPKPKDTLMISRTPEVTCVVVDVSHEDPEVQFNWYVDGVEVHNAKTKPREEQFNSTFRVVSVLTVVHQDWLNGKEYKCKVSNKGLPAPIEKTISKTKGQPREPQVYTLPPSREEMTKNQVSLTCLVDGFYPSDIAVEWESNGQPENNYDTTPPMLDSDGSFFLYSDLTVDKSRWQQGNVFSCSVMHEALHNHYTQKSLSLSPGK light 2: not shown heavy 2: not shown |
